Here are results for 27 sequences from the supplement of paper PMC9170038.

Data set [1] relates to MS2 coat protein. The experiment in a line: apparent KD of MS2 coat protein; designed switch direction (-1 OFF switch, 1 ON switch): 1; higher = weaker reporter binding. The essentials:
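The buffer was Tris-HCl pH 7.5 with KCl, MgCl2, BSA, DTT, tRNA and Tween-20. In it, SNAP-549-labelled MS2 coat protein was titrated in doubling steps from 0.7 or 1.5 nM to 3 µM over chip-bound RNA switches transcribed by stalled E. coli RNA polymerase on Illumina chips. Apparent KD is the per-design median over clusters of curve fits to normalised fluorescence.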

Data set [2] deals with MS2 coat protein. The data set is described as follows: apparent KD of MS2 coat protein; higher = weaker reporter binding. To be noted: Eterna round: R107. The method, boiled down:
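Titration buffer: 100 mM Tris-HCl pH 7.5, 80 mM KCl, 4 mM MgCl2, without or with constant ligand. Designed RNA switches transcribed on-chip from Illumina sequencing clusters received SNAP-549-labelled MS2 coat protein in twofold steps from 0.7 or 1.5 nM to 3 µM. Apparent KD is the median per design of fits to normalised cluster binding curves.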

[3] abbreviates: input ligand: microRNA oligo, concentration not stated.
Where [4] appears, read: Eterna round: R95, input ligand: FMN 200 uM.
[5] abbreviates: Eterna round: R95, input ligand: microRNA oligo, concentration not stated.
Setting [6] is: Eterna round: R95, input ligand: none.
Where [7] appears, read: input ligand: theophylline 20 uM.
Setting [8] is: input ligand: theophylline 2 mM.
[9] abbreviates: input ligand: tryptophan 2.4 mM.

Turning to “AUAAGGCAAGCUUUUUUCUCGUAGUGUAAACAUGAGGAUCACCCAUGUGCCCACCCUGGAUCUUUGGAUCGCGGAAC [Raxesori] (Eterna round: R96, puzzle: Sensor for hsa-mir-208a)”, the “apparent KD of MS2 coat protein” value in data set [1] (input ligand: FMN 200 uM) was 103 nM; in data set [1] (setting [3]), 21.8 nM; in data set [1] (input ligand: none), 90.5 nM.

Regarding “AGUCCAGCAUAAGCUGGACAAAAGCAUGUACAUGAGGAUCACCCAUGUCAUGUACAAGCUUUUUGCUCGUCUUAAUA [Mat - hsa-mir-208a - Mod of JL - D36] (puzzle: Sensor for hsa-mir-208a)”, the “apparent KD of MS2 coat protein” value in data set [1] (setting [4]) came to 446 nM; in data set [1] (setting [5]) it was 19.8 nM; in data set [1] (setting [6]), 500 nM.

On to “UAGCUUGUGGUAGGAUAUCUAGGAUAUGGGAAGAGCUAAGCUUGGAAGUCACUUCACCCAGAAGGAGAGAAGGACCAGAGGCUU [pwkr ssNG2 2FMN + F9.6] (Eterna round: R96, puzzle: Same State NG 2)”, for which the results for the “apparent KD of MS2 coat protein” value in data set [1] (input ligand: FMN 200 uM), in data set [1] (setting [3]) and in data set [1] (input ligand: none) were 218 nM, 73.6 nM and 262 nM, respectively.

Turning to “GGUCCAGCCUGAGCUGGACAAAAGCAUGUACAUGAGGAUCACCCAUGUCAUGUACAAGCUUUUUGUUCGUCUUAAAA [JL mod - D87 - 13] (puzzle: Sensor for hsa-mir-208a)”, the “apparent KD of MS2 coat protein” value is 420 nM in data set [1] (setting [4]), 15.6 nM in data set [1] (setting [5]) and 344 nM in data set [1] (setting [6]).

As for “AGAUGUUAAUUAGGAUAUGGGCACAUGAGGAUCACCCAUGUAUUUUCGAUGCUAUGUGGAGACGUCUAGAAGGGAUGGCUAACA [SameState NG2 #87] (Eterna round: R96, puzzle: Same State NG 2)”, the “apparent KD of MS2 coat protein” value amounted to 198 nM in data set [1] (input ligand: FMN 200 uM), 137 nM in data set [1] (setting [3]) and 142 nM in data set [1] (input ligand: none).

Regarding “UUUCGGUGGCUGGAGGAUAUCCUGGUUGUUACAUGAGGAUCACCCAUGUGCCGCGCGGUGCGCUGGGAGAAGGCCGGCGGCCCUU (puzzle: Same State 2)”, the “apparent KD of MS2 coat protein” value in data set [1] (setting [5]) was determined as 25.2 nM.

For the sequence “UAGAAACAUGAGGAUCACCCAUGUGUCAAAGACAUAGGAUAUCGUAACCGGCGCCGAAUACGAGAAGGGUGGUAAA [Arares] (puzzle: Same State 1)”, the figures for the “apparent KD of MS2 coat protein” value in data set [1] (setting [4]), in data set [1] (setting [5]) and in data set [1] (setting [6]) were 183 nM, 74.9 nM and 166 nM, respectively.

In the case of “GACGUGAAGGCAGGAUAUGGGAAAGGAAGUGUACCAGAAGGGCCUGGAAAACAUGAGGAUCACCCAUGUGAACCCACGUCAGUU [PowerStrip SSNG 1.26] (Eterna round: R96, puzzle: Same State NG 1)”, the “apparent KD of MS2 coat protein” value in data set [1] (input ligand: FMN 200 uM) was 16 nM; in data set [1] (setting [3]), 35.4 nM; in data set [1] (input ligand: none), 27.9 nM.

On to “AGUCCAGCAAGAGCUGGACAAAAGCAUGUACAUGAGGAUCACCCAUGUUCAUGUACAAGCUUUUAGCUCGUCUUAAA [Mat - hsa-mir-208a - Mod of JL - 58] (puzzle: Sensor for hsa-mir-208a)”, for which the entries for the “apparent KD of MS2 coat protein” value in data set [1] (setting [4]), in data set [1] (setting [5]) and in data set [1] (setting [6]) were 505 nM, 14.2 nM and 570 nM, respectively.

In the case of “CUGAGCAAUCAAGGAUAUCACGUCGAUUAGACGUGAGAAGGUGAUCAUCACAUGAGGAUCACCCAUGUGUUACAUGGAGCUCAG [Brourd's SSNG1/1-A2 mod 4] (Eterna round: R96, puzzle: Same State NG 1)”, in data set [1] (setting [3]), the “apparent KD of MS2 coat protein” value was 610 nM.

Turning to “GAAAAACAUGAGGAUCACCCAUGUGAGAAUAUGGGAGGAUAUUCAAAGACGAAAGUCAAAGAAGAAGGCCUAAAAG [Mat - Same State 1 - Eli mod - 37] (Eterna round: R96, puzzle: Same State 1)”, the results for the “apparent KD of MS2 coat protein” value in data set [1] (input ligand: FMN 200 uM), in data set [1] (setting [3]) and in data set [1] (input ligand: none) were 33.4 nM, 143 nM and 211 nM, respectively.

For “GCCGGCUGGUGAGGAUAUGGCACCUUAUUGGUGCCAGAAGGCAUGUCAAUUGACAUGAGGAUCACCCAUGUAUUAUGGUUGGCG [salish99_SSNG1_r04_606] (Eterna round: R96, puzzle: Same State NG 1)”, the “apparent KD of MS2 coat protein” value in data set [1] (input ligand: FMN 200 uM) amounted to 567 nM; in data set [1] (setting [3]), 63.2 nM; in data set [1] (input ligand: none), 85.4 nM.

Take “GUGGUCAGACAUGAGGAUCACCCAUGUGGAAUAAAUAACGGUGAGGAUAUGGAAUAUAGGAUAUACUAGAAGGCAUGAUUGGUG (Eterna round: R96, puzzle: Same State NG 3)”: the “apparent KD of MS2 coat protein” value is 91.5 nM in data set [1] (input ligand: FMN 200 uM), 76.9 nM in data set [1] (setting [3]) and 92.3 nM in data set [1] (input ligand: none).

For the sequence “CGUAGGAUAUGCAGAGGAUCACCCUGUAGAAGGACGAUUACGUAGGAUAUGCAGAGGAUCACCCUGUAGAAGGACGACUAAUCU [pwkr ssNG3 DX 2xF5 +2xFMN.2] (Eterna round: R96, puzzle: Same State NG 3)”, the “apparent KD of MS2 coat protein” value is 174 nM in data set [1] (input ligand: FMN 200 uM), 105 nM in data set [1] (setting [3]) and 129 nM in data set [1] (input ligand: none).

In the case of “CUCAAACAUGAGGAUCACCCAUGUGUUGUCGUGGGAGGAUAUCCCAGUUCGGUGGCGUCGGGAGAAGGCCUAUGUC (Eterna round: R96, puzzle: Same State 1)”, the “apparent KD of MS2 coat protein” value is 67.8 nM in data set [1] (input ligand: FMN 200 uM), 106 nM in data set [1] (setting [3]) and 129 nM in data set [1] (input ligand: none).

In the case of “GGUGGGUUACUACCCACACAUGAGGAUCACCCAUGUAUUGGGAAGGAUAUGGUACCUAUUUGGUACCAGAAGGUCCUGAAGGUG [SS-NG3-LRO16] (Eterna round: R96, puzzle: Same State NG 3)”, the “apparent KD of MS2 coat protein” value in data set [1] (input ligand: FMN 200 uM) was 638 nM; in data set [1] (setting [3]) it was 545 nM; in data set [1] (input ligand: none), 1170 nM.

With “AAGACAAGCUUUAUGUUCUUCCUAUUCCAACAUGAGGAUCACCCAUGUAGUCUGACGAUUGUGAGUGUAGUUGAGAU [JR_SHM208A_Sub027] (puzzle: Sensor for hsa-mir-208a)”, the figures for the “apparent KD of MS2 coat protein” value in data set [1] (setting [4]), in data set [1] (setting [5]) and in data set [1] (setting [6]) were 58.3 nM, 76.9 nM and 76.5 nM, respectively.

With “CAAACCGACACAGGAUAUGGAGCCGACCGGCACAUGAGGAUCACCCAUGUGCUACAGGUAUGUAGCUAGAAGGGUGAAGGUAUC [Eternabot solution 29] (Eterna round: R96, puzzle: Same State NG 2)”, the “apparent KD of MS2 coat protein” value in data set [1] (input ligand: FMN 200 uM) amounted to 48.5 nM; in data set [1] (setting [3]), 56.9 nM; in data set [1] (input ligand: none), 118 nM.

Consider “GGCACAAAAGCACAGGAUAUGCAAAAGAACACAUGAGGAUCACCCAUGUAGCCAAAUAACGGGCAGCAGAAGGGUGGGACUGCCA [Ceridi] (puzzle: Same State 2)”, for which the “apparent KD of MS2 coat protein” value came to 78.2 nM in data set [1] (setting [4]), 693 nM in data set [1] (setting [5]) and 485 nM in data set [1] (setting [6]).

Turning to “AACUAUCUAUCUCAGGAUAUCAUGUCAAAGACAUGAGGAUCACCCAUGUACCAGGAAACUGGUUAUGAGAAGGGAGAUAGAUAGU [Mat - Same State 2 - Mod - D41] (puzzle: Same State 2)”, the figures for the “apparent KD of MS2 coat protein” value in data set [1] (setting [4]), in data set [1] (setting [5]) and in data set [1] (setting [6]) were 127 nM, 263 nM and 602 nM, respectively.

As to “AAAUAAACCUCGGCCGCCACUCGCCAUGAGGAUCACCCAUGUAACAUGAGGAUCACCCAUGUACAGAGGACCGGGAGGUCCUAGU [Same State Tryptophan B GF 13]”, the entries for the “apparent KD of MS2 coat protein” value in data set [2] (input ligand: arginine 13.2 mM), in data set [2] (setting [7]) and in data set [2] (setting [8]) were 48.3 nM, 68.9 nM and 87.1 nM, respectively.

On to “GUACAUGAGGAUCACCCAUGUAUAGUUGAAGGAGCGACCGGAGGGUCAGGUAGGUCGCAGCACAUGGCGUCAACCCGUGUAUGCC [#1 Exclusion - Arginine A Attempt #25 (Inspired by Pi)]”, for which the “apparent KD of MS2 coat protein” value turned out to be 15.2 nM in data set [2] (input ligand: arginine 13.2 mM); 17.3 nM in data set [2] (input ligand: none); 22.7 nM in data set [2] (setting [7]); 18.5 nM in data set [2] (setting [8]); 18.6 nM in data set [2] (setting [9]).

Consider “AAAACCUCACCUGAGGAACACCCAGGUGAUACCAGCCUGGAAACAGGCCCUUGGCAGCACCAGGUCAUCAAAGAUGACCAAAUAA [TheoAX 25 #OpenEnded #AlternativeMS2]”, for which the “apparent KD of MS2 coat protein” value in data set [2] (input ligand: arginine 13.2 mM) is 17.5 nM; in data set [2] (input ligand: none), 22.7 nM; in data set [2] (setting [7]) it was 40.7 nM; in data set [2] (setting [8]) it was 595 nM; in data set [2] (setting [9]), 21.3 nM.

For the sequence “AUAUUAAUCGGAAGGAGCGGUACAUGAGGAUCACCCAUGUGCGAAGCCAGCAGAUCCCGUUACCAGGUAGGUCGCCGAGUUAUGA [Begebe]”, the “apparent KD of MS2 coat protein” value in data set [2] (input ligand: arginine 13.2 mM) was found to be 23.6 nM; in data set [2] (input ligand: none), 33 nM; in data set [2] (setting [7]), 39.8 nM; in data set [2] (setting [8]) it was 37.5 nM; in data set [2] (setting [9]), 30.7 nM.

For “CGAAUAUAGGCUACGUGUCAUUGAGGCGAUACCAGAUUAUGCCAGAUCCCUUGGCAGCGCCAAACAUGAGGAUCACCCAUGUUCA [theeternabot_exclusion_MS2_Theo_A_38]”, the “apparent KD of MS2 coat protein” value in data set [2] (input ligand: arginine 13.2 mM) was 23.5 nM; in data set [2] (setting [7]) it was 24.8 nM; in data set [2] (setting [9]) it was 21.5 nM.

In the case of “UUCAGCUAGUCGGCCGCCACUACCUGAGGAUCACCCUGGUAAUCCUAACACUGCUUCGGCAGUGGUAGGACCGGGACUAGCUGAG”, the “apparent KD of MS2 coat protein” value was 27.7 nM in data set [2] (input ligand: arginine 13.2 mM); 28.2 nM in data set [2] (input ligand: none); 39.7 nM in data set [2] (setting [7]); 32.6 nM in data set [2] (setting [8]); 225 nM in data set [2] (setting [9]).

Consider “AAUAAGCAGCUGCAAGGUGAUCCUGCAGAUACCAGCUAGGAAACUAGCCCUUGGCAGCUGCAACAUGAGGAUCACCCAUGUAAUA [(T)'-(M)'-(T1)-(T2)-(M1)-(M2)_Design6]”, for which the “apparent KD of MS2 coat protein” value in data set [2] (input ligand: arginine 13.2 mM) is 26.2 nM; in data set [2] (setting [7]) it was 61.7 nM; in data set [2] (setting [9]), 30.7 nM.
